Target: GST-Sam68(1-277) (UniProt Q60749 1-277)
Assay: EMSA

GST-Sam68(1-277), sequence (Q60749 1-277): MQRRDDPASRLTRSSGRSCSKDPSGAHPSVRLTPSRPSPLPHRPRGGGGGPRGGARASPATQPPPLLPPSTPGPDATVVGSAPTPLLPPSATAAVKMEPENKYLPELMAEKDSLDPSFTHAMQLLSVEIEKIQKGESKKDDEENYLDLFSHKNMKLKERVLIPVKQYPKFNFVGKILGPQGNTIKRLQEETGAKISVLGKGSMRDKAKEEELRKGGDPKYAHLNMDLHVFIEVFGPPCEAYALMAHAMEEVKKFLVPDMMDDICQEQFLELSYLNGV

B1: Sgce WT probe (intron 7/exon 8 boundary) (ssRNA)
RNA: UAUUUAAUUCAUAAAUUUUGUUUUGUUUCUAGGGA
B1: binds.

From article PMC3130265
